# Test results reported in patent US10253323B2, “Chloroplast transit peptides” (priority 2015, dated 2019).
# Entries after “also recorded” stand apart in the source; their conditions may differ.
# Experiments:
# [1] = test system: chloroplasts of the tobacco leaf tissues; assay: Tobacco transient assay, confocal microscopy of TraP-YFP/GFP; assay type: cell-based, Nicotiana tabacum; settings: TraP-YFP or TraP-GFP fusion, Agrobacterium-infiltrated tobacco leaf tissue
# Excerpt: The above described chimeric chloroplast transit peptide sequences were initially tested via a transient in planta assay. Polynucleotide sequences which encode the TraP10 (SEQ ID NO:9), TraP11 (SEQ ID NO:10), TraP17 (SEQ ID NO:11), TraP18 (SEQ ID NO:12), TraP19 (SEQ ID NO:13), TraP26 (SEQ ID NO:14), TraP27 (SEQ ID NO:15), and TraP28 (SEQ ID NO:16), chimeric chloroplast transit peptide sequences were synthesized. A linker sequence (SEQ ID NO:17) was incorporated between the TraP sequence and the yfp coding sequence of TraP10 and TraP11. The resulting constructs contained two plant transcription units (PTU). The first PTU was comprised of the Arabidopsis thaliana Ubiquitin 10 promoter (AtUbi10 promoter; Callis, et al., (1990) J. Biol. Chem., 265: 12486-12493), TraP-yellow fluorescent protein fusion gene (TraP-YFP; US Patent App. 2007/0298412) or the TraP-green fluorescent protein fusion gene (TraP-GFP; Sheen et al., (1995) Plant J., 8(5): 777-84), and Agrobacterium tumefaciens ORF 23 3′ untranslated region (AtuORF23 3′UTR; U.S. Pat. No. 5,428,147). The second PTU was comprised of the Cassava Vein Mosaic Virus promoter (CsVMV promoter; Verdaguer et al., (1996) Plant Molecular Biology, 31: 1129-1139), phosphinothricin acetyl transferase (PAT; Wohlleben et al., (1988) Gene, 70: 25-37) or DSM-II (International Patent App. 2008070845), and Agrobacterium tumefaciens ORF 1 3′ untranslated region (AtuORF1 3′UTR; Huang et al., (1990) J. Bacteriol., 172: 1814-1822). Construct pDAB101979 contains the TraP10 chimeric chloroplast transit peptide (FIG. 3). Construct pDAB101980 contains the TraP11 chimeric chloroplast transit peptide (FIG. 4). Construct pDAB107634 contains the TraP17 chimeric chloroplast transit peptide (FIG. 5). Construct pDAB107635 contains the TraP18 chimeric chloroplast transit peptide (FIG. 6). Construct pDAB107636 contains the TraP19 chimeric chloroplast transit peptide (FIG. 7). Construct pDAB109847 contains the TraP26 chimeric chloroplast transit peptide (FIG. 8). Construct pDAB109848 contains the TraP27 chimeric chloroplast transit peptide (FIG. 9). Construct pDAB109849 contains the TraP28 chimeric chloroplast transit peptide (FIG. 10). […] The constructs were confirmed via restriction enzyme digestion and sequencing. Finally, the constructs were transformed into Agrobacterium tumefaciens and stored as glycerol stocks.
# From an Agrobacterium glycerol stock, a loop full of frozen culture was inoculated into 2 ml of Yeast-extract Peptone Dextrose (100 μg/ml spectinomycin) in a 14 ml sterile tube. The inoculated media was incubated at 28° C. overnight with shaking at 200 rpm. The following day about 100 μl of the culture was used to inoculate 25 ml of YPD (100 μg/ml spectinomycin) in a 125 ml sterile tri-baffled flask, and incubated overnight at 28° C. overnight with shaking at 200 rpm. The following day the cultures were diluted to an OD600 of 0.5 in sterile ddH2O (pH 8.0). The diluted Agrobacterium strain was mixed with a second Agrobacterium strain containing the P19 helper protein at a ratio of 1:1. The culture were used for tobacco leaf infiltration via the Voinnet method. Voinnet O, Rivas S, Mestre P, and Baulcombe D, (2003) An enhanced transient expression system in plants based on suppression of gene silencing by the p19 protein of tomato bushy stunt virus. The Plant Journal, 33: 949-956. Infiltrated tobacco plants were placed in a Conviron™ set at 16 hr of light at 24° C. for at least three days until being assayed.
# Agrobacterium-infiltrated tobacco leaves were severed from the plant, and placed into a petri-dish with water to prevent dehydration. The infiltrated tobacco leaves were observed under blue light excitation with long-pass filter glasses held in place using a Dark Reader Hand Lamp™ (Clare Chemical Research Co.; Dolores, Colo.) to identify undamaged areas of the leaf that were successfully expressing the YFP or GFP reporter proteins. […]
# [2] = test system: infiltrated tobacco cells; assay: Western blot of infiltrated tobacco plants; assay type: cell-based, Nicotiana tabacum; settings: infiltrated tobacco leaf tissue
# Procedure: Samples of the infiltrated tobacco plants were assayed via Western blotting. Leaf punches were collected and subjected to bead-milling. About 100-200 mg of leaf material was mixed with 2 BBs (Daisy; Rogers, Ark.) and […] of PBST for 3 minutes in a Kleco™ bead mill. The samples were then spun down in a centrifuge at 14,000× g at 4° C. The supernatant was removed and either analyzed directly via Western blot or immunoprecipitated. The immunoprecipitations were performed using the Pierce Direct IP Kit™ (Thermo Scientific; Rockford, Ill.) following the manufacturer's protocol. Approximately, 50 μg of anti-YFP or anti-GFP was bound to the resin. The samples were incubated with the resin overnight at 4° C. Next, the samples were washed and eluted the following morning and prepped for analysis by combining equal volumes of 2×8M Urea sample buffer and then boiling the samples for 5 minutes. The boiled samples were run on a 4-12% SDS-Bis Tris gel in MOPS buffer for 40 minutes. The gel was then blotted using the Invitrogen iBlot™ (Life Technologies; Carlsbad, Calif.) following the manufacturer's protocol. The blotted membrane was blocked for 10 minutes using 5% non-fat dry milk in PBS-Tween® solution. The membrane was probed with the primary antibody (monoclonal anti-GFP or anti-YFP in rabbit) used at a 1:1000 dilution in the 5% non-fat dry milk in PBS-Tween® solution for 1 hour. Next, the membrane was rinsed three times for five minutes with PBS-Tween® to remove all unbound primary antibody. The membrane was probed with a secondary monoclonal anti-rabbit in goat antibody (Life Technologies) used at a 1:1000 dilution, for 60 minutes. The membrane was washed as previously described and developed by adding Themo BCIP/NBT™ substrate. The colormetric substrate was allowed to develop for 5-10 minutes and then the blots were rinsed with water before being dried.
# [3] = test system: chloroplasts of the maize protoplasts; assay: Maize protoplast transient assay, microscopy of TraP-GFP; assay type: cell-based, Zea mays c.v. B104; settings: TraP-GFP fusion, transfected maize protoplasts, microscopy after 12 hours
# Procedure: Seed of Zea mays c.v. B104 were surface sterilized by shaking vigorously in 50% Clorox™ (3% sodium hypochlorite), containing 2-3 drops of Tween® 20, for about 20 minutes. The seeds were rinsed thoroughly with sterile distilled water. The sterile seed were plated onto ½ MS medium in Phytatrays or similar type boxes, and allowed to grow in the dark (28° C.) for 12 to 20 days. A maize protoplast transient assay was used to obtain and transfect maize protoplasts from leaves of Zea mays c.v. B104. This maize protoplast assay is a modification of the system described by Yoo, S.-D., Cho, Y.-H., and Sheen, J., (2007), Arabidopsis Mesophyll Protoplasts: A Versitile Cell System for Transient Gene Expression Analysis, Nature Protocols, 2: 1565-1572. The solutions were prepared as described by Yoo et. al., (2007), with the exception that the mannitol concentration used for the following experiments was change to 0.6 M.
# Transfection of 100 to 500 μl of protoplasts (1-5×10^5 cells) was completed by adding the protoplasts to a 2 ml microfuge tube containing about 40 μg of plasmid DNA, at room temperature. The volume of DNA was preferably kept to about 10% of the protoplast volume. The protoplasts and DNA were occasionally mixed during a 5 minute incubation period. An equal volume of PEG solution was slowly added to the protoplasts and DNA, 2 drops at a time with mixing in between the addition of the drops of PEG solution. The tubes were allowed to incubate for about 10 minutes with occasional gentle mixing. Next, 1 ml of W5+ solution was added and mixed by inverting the tube several times. The tube(s) were centrifuged for 5 minutes at 75× g at a temperature of 4° C. Finally, the supernatant was removed and the pellet was resuspended in 1 ml of WI solution and the protoplasts were placed into a small petri plate (35×10 mm) or into 6-well multiwell plates and incubated overnight in the dark at room temperature. Fluorescence of GFP was viewed by microscopy after 12 hours of incubation. The microscopy conditions similar to those previously described were used for the imaging.
# [4] = test system: dgt-28 transformed T1 Arabidopsis; assay: Glyphosate tolerance of dgt-28 transformed T1 Arabidopsis; assay type: in vivo, Arabidopsis thaliana; settings: dgt-28 linked with the chloroplast transit peptide, T1 Arabidopsis
# Procedure: The Arabidopsis T1 transformants (from transformation with pDAB114286 or pDAB114287) were first selected from the background of untransformed seed using a glufosinate selection scheme. Three flats or 50,000 seed were analyzed for each T1 construct. The selected T1 plants were molecularly characterized (as described above) and events with a range of copy number were sprayed with various rates of commercial glyphosate.
# Transgenic T1 Arabidopsis plants containing the dgt-28 transgene were sprayed with differing rates of glyphosate. Elevated rates were applied in this study to determine the relative levels of resistance (420, 840, 1,680 or 3,360 g ae/ha). The typical 1× field usage rate of glyphosate is 1120 g ae/ha. The response of these plants is presented in terms of % visual injury 2 weeks after treatment (WAT). The T1 Arabidopsis plants that were used in this study were of variable copy number for the dgt-28 transgene. The low copy dgt-28 T1 Arabidopsis plants were self-pollinated and used to produce T2 plants.
# An arithmetic mean and standard deviation is presented for each construct used for Arabidopsis transformation. The range in individual response is also indicated in the last column for each rate and transformation. Wildtype, non-transformed Arabidopsis thaliana c.v. Columbia served as a glyphosate sensitive control.
Molecule,translocation of YFP or GFP fluorescent protein into chloroplasts [1],translocation of YFP or GFP fluorescent protein into chloroplasts ([1]; listed as TraP19-GFP),TraP processed and cleaved from the YFP or GFP protein [2],translocation of GFP fluorescent protein into chloroplasts [3],translocation of GFP fluorescent protein into chloroplasts ([3]; listed as TraP19-GFP),translocation of GFP fluorescent protein into chloroplasts ([3]; listed as Trap19),translocation of YFP or GFP fluorescent protein into chloroplasts ([1]; listed as TraP18-GFP),translocation of GFP fluorescent protein into chloroplasts ([3]; listed as TraP18-GFP),translocation of YFP or GFP fluorescent protein into chloroplasts ([1]; listed as TraP27-GFP),protection to glyphosate [4]
"TraP19: chimeric chloroplast transit peptide, SEQ ID NO:5; N-terminus Amaranthus, C-terminus Dunaliella salina; tested fused to GFP (pDAB107636) (protein, TraP19) MAQATTINNGVHTGQLHHTLPKTQLPKSSKVNDVVPHVYSAPLSVARRSCSKSSIRSTRRLQTTVCS",accumulated within the chloroplasts; also recorded: successfully targeted GFP to maize and tobacco chloroplasts,translocated into the chloroplasts,processed and cleaved from the YFP or GFP protein,successfully targeted GFP to maize and tobacco chloroplasts,translocated into the chloroplasts,accumulated within the chloroplasts,–,–,–,–
"TraP18: chimeric chloroplast transit peptide, SEQ ID NO:4; N-terminus Oryza sativa, C-terminus Amaranthus; tested fused to GFP (pDAB107635) (protein, TraP18) MAATMASNAAAAAAVSLDQAVAASAAFSSKTLNFGSNLRISPKFMSLTNKRVGGQSSIVPKIQASVA",accumulated within the chloroplasts; also recorded: successfully targeted GFP to maize and tobacco chloroplasts,–,processed and cleaved from the YFP or GFP protein,accumulated within the chloroplasts; also recorded: successfully targeted GFP to maize and tobacco chloroplasts,–,–,translocated into the chloroplasts,translocated into the chloroplasts,–,–
"TraP27: synthetic chloroplast transit peptide, SEQ ID NO:7; tested fused to GFP (pDAB109848) (protein, TraP27) MATFTRVCHTARKSFVSLSNSQANSPVSVRFLSLPMPAARPAVKSGVRLWGCRLSFKVSAS",accumulated within the chloroplasts; also recorded: successfully targeted GFP to tobacco chloroplasts,–,processed and cleaved from the YFP or GFP protein,–,–,–,–,–,translocated into the chloroplasts,provide protection to glyphosate
